Data on one protein can be found in article PMC4795551, “Biochemistry and Crystal Structure of Ectoine Synthase: A Metal-Containing Member of the Cupin Superfamily” (PLoS ONE, 2016).

Series [1] concerns the molecule itself. Nature of the series: SEC-MALS; HPLC-MALS; Bio SEC-5 HPLC column (300 Å), 20 mM Tris-HCl (pH 7.5), 200 mM NaCl; 100 μl of purified (Sa)EctC at 2 mg ml^-1 loaded. Background: In gel filtration, larger molecules generally elute earlier.
Substrate in series [2]: CC(=O)N[C@@H](CCN)C(=O)O
Description: HPLC assay of ectoine formation, Michaelis-Menten. The series is classed as biochemical, Sphingopyxis alaskensis. The note with it: 20 mM Tris pH 8.5, 200 mM NaCl, 1 mM FeCl2, 15 °C, 20 min, 0-200 mM substrate.

Substrate in series [3]: CC(=O)NCC[C@H](N)C(=O)O
Nature of the series: HPLC assay of ectoine formation, Michaelis-Menten. The series is classed as biochemical, Sphingopyxis alaskensis. The settings on record: 20 mM Tris pH 8.5, 200 mM NaCl, 1 mM FeCl2, 15 °C, 20 min, 0-40 mM substrate.

B1: ectoine synthase from Sphingopyxis alaskensis, (Sa)EctC-Strep-tag II protein (enzyme, UniProt Q1GNW6 1-137, looked up)
chain: MIVRNLGDIRKTDRNVRSDGWASARMLLKDDGMGFSFHVTTLFAGSELRMHYQNHLEAVLVLKGTGTIEDLATGEVHALRPGVMYALDDHDRHIVRPETDILTACVFNPPVTGREVHDESGAYPADPELAREPVAAD
notes: Ectoine synthase EctC (EC 4.2.1.108) of Sphingopyxis alaskensis, 137 amino acids; made from a codon-optimised synthetic ectC gene; printed stretches: 1-MIVRN-5 and 82-GVMYAL-87; Monomer with tag 16.3 kDa; In the crystals only Met-1 to Glu-115 (open) or Met-1 to Gly-121 (protomer A, semi-closed) are resolved; not shown: Strep-tag II, C-terminal, kept
A word on the stoichiometry N: it is the number of molecules, sites or subunits per partner or assembly. Broadly, the Km is the substrate concentration at which the rate is half of its maximum. The term kcat denotes the maximal rate divided by the concentration of active sites. For the protein B1, the “stoichiometry N” value in series [1] was determined as 2. In addition, in series [2], the Km is 25.4 ± 2.9 mM and the kcat amounted to 0.6 s⁻¹. In series [3], the Km is on record as 4.9 ± 0.5 mM and the kcat amounted to 7.2 s⁻¹.
